# Measured values as given in patent US8932880B2, “Method for the direct measure of molecular interactions by detection of light reflected from multilayered functionalized dielectrics” (ProXentia s.r.l., priority 2009, dated 2015).
# Biological target: T1, Avidin (Gallus gallus, UniProt P02701)
# T1 construct: purchased Sigma-Aldrich A9275
# Assay: Reflected light intensity from an antireflective SiO2-coated prism, He-Ne laser and photodiode (Example 2): binding to adsorbed Avidin
# Conditions: 632.8 nm laser; flow 10 microliters/minute; phosphate buffer pH 7.4 + 150 millimolar NaCl; BSA 0.4 micromolar, BSA-biotin 0.5 micromolar
# Source text: A layer of silicon oxide (SiO2) was deposed by sputtering on one side of a glass prism, as described in Example 1. The prism is placed in a flow cell so that the coated surface is in contact with the aqueous solution. A light beam from a 5 milliwatts He—Ne laser is sent to the interface between the aqueous solution and the prism and the reflected light is detected by a photodiode that converts the light intensity in an electrical signal. Through the cell is promoted a flow of 10 microliters/minute of an aqueous solution containing sodium phosphate buffer pH 7.4+150 millimolar NaCl (hereafter called “phosphate buffer”) in the following order:
# b) protein Avidin (marketed by Sigma-Aldrich, prod. No. A9275) at a concentration of 3 micromolar;
# d) protein Bovine Serum Albumin, BSA (marketed by Sigma-Aldrich, prod. No. A6003) at a concentration of 0.4 micromolar;
# f) protein BSA conjugated to biotin (marketed by Sigma-Aldrich, prod. No. A8549) at a concentration of 0.5 micromolar;
# In FIG. 5 the measured reflected intensity is reported as a function of time. The value of the reflected light intensity measured before the step a) corresponds to a reflectivity of 3.2·10^−6. […] Unlike in Example 1, in this case the adhesion molecules on the surface causes an increase in the intensity of reflected light. […]
# T1 sequence (P02701 25-152): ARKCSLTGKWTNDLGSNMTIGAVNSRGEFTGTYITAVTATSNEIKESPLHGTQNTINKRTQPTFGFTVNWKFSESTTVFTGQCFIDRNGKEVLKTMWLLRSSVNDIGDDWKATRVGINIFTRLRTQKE
substance,measurement,value
Bovine Serum Albumin [BSA protein],variation of reflected intensity on flowing the solution over adsorbed Avidin,no further variation is observed
